Laboratory results as given in the DeepSol protein solubility set.

Assay: soluble on expression in E. coli; label from the status in PepcDB or PDB records

Sequence | soluble on expression in E. coli
MGIRVKRRQHQHLLESLVHSTAKQQGDFTKTAELATELLCQNLAVSLVSIWIFSADQGTQSLVAQFGSMALQDTYRPSLLHTVPRYLNELKNYRHIDAGNTLIDPRLTELVDSYFIPRQILSSLDVGIRINGHLEGVLCIERAQVTHHWHDSEIHLACQMADQLALTLATKHAYDKEERLSLFRCAIEQSRQMSMLEHHHHHH | soluble
GPGSMLLSVPEAHTEVITSLQFSPHHASVLCSTSGDDTAALWDLRNPSDSCNIARLTHHREPVNHALFIEESEPCLLTASDDRTIAYWDVREISQPVAVIRGFGDGINKMLRLPVSRRSGNACVNGGACCLIVSACDDGAVYIHDVALCGDTRRQSGMPVEGAGDTFSSTGNLVDRFMASTSTVNDLVLSPNPNLLLTASEDCAIRLWDIGPIFGGQRTQDERLVTSFDEFENPVNHIAVINSPRVTQFVQDEGQGGHSGCWLYAACSEFIFAVDLDPVSGALGEGARTLTGHQDYVRGLEFVGDDTLLTVSDDSTVIEWSLRTSNPVRQVKLHEGLVMASAVSAARDVLATGTDGGEMRVWRLPFLTE | not soluble
MTSGLERLSNLLSKKDSVFVSDLLREAKVNELDETLSTTRLNHLIDKGYERITLQLDLGGESPGYLEKDKHYREADAALLNVIYPTNLSKINTRRKEQV | not soluble
MSLQDSLFQTETGFQPLAARMRPTSLEGYVGQAHLVGPGKPLRRAVEQGQLHSMILWGPPGVGKTTFARLLANVGDLSFETISAVLSGVKEIREVVERARNRKQSQGRDTLLFVDEVHRFNKSQQDAFLPHIEDGTFIFVGATTENPSFELNSALLSRTRVYVLKNLEAADIRRLLDSALESEQGFAGQLRVEESVLATMAEASGGDARRALNILEVAADLAEPDDDGNNRVTAQTLEQVLQTSLRRFDKGGDVFYDQISALHKSVRGSNPDGSLYWLCRMLDGGCDPLYVARRLVRIASEDIGNADPRALQITLQAWDAQERLGSPEGELALAQAVTYLALAPKSNAVYKAYNQCIADIRSDPDYEVPVHLRNAPTKLLKSMGHGEEYRYAHDEPDAYAAGEAYLPEAIYQRRYYQPVQRGLEIKLAEKRERLDSLDANSPKKREGHHHHHH | soluble
MKTYYEQDANVGLLQGKTVAVIGYGSQGHAQAQNLRDSGVEVVVGVRPGKSFEVAKADGFEVMSVSEAVRTAQVVQMLLPDEQQAHVYKAEVEENLREGQMLLFSHGFNIHFGQINPPSYVDVAMVAPKSPGHLVRRVFQEGNGVPALVAVHQDATGTALHVALAYAKGVGCTRAGVIETTFQEETETDLFGEQAVLCGGVTALVKAGFETLTEGGYRPEIAYFECLHELKLIVDLMYEGGLTNMRHSISDTAEFGDYVTGSRIVTDETKKEMKRVLTEIQQGEFAKKWILENQAGRPTYNAMKKAEQNHQLEKVGEELREMMSWIHAPKELVKK | not soluble
MSLNVNFFVTCIGDALKSRMARDSVLLLEKLGCRVNFPEKQGCCGQPAINSGYIKEAIPGMKNLIAALEDNDDPIISPAGSCTYAVKSYPTYLADEPEWASRAEKVAARMQDLTSFIVNTLGVVDVGASLQGRAVYHPSCSLARKLGVKDEPLTLLKNVRGLELLTFAEQDTCCGFGGTFSVKMAEISGEMVKEKVAHLMEVRPEYLIGADVSCLLNISGRLQREGQKVKVMHIAEVLMSREGHHHHHH | not soluble
MGHHHHHHSHMTSYDQIWETFLNNCETSDFDVPQQEEDIYKSIRNAILHFNNRLRDNLKADNSTETVNRELSEDDLLILAHFLRYIFLLNKKTLFENTWQPFTNDVGIKNFGTQLNSLKQSVMDQKDEIERLILNAAVDYL | soluble
MGSDKIHHHHHHMARLPLKQFLADNPKKVLVLDGGQGTELENRGIKVANPVWSTIPFISESFWSDESSANRKIVKEMFNDFLNAGAEILMTTTYQTSYKSVSENTPIRTLSEYNNLLNRIVDFSRNCIGEDKYLIGCIGPWGAHICREFTGDYGAEPENIDFYQYFKPQLENFNKNDKLDLIGFETIPNIHELKAILSWDESILSRPFYIGLSVHEHGVLRDGTTMEEIAQVIKDLGDKINPNFSFLGINCVSFNQSPDILESLHQALPNMALLAYPNSGEVYDTEKKIWLPNSDKLNSWDTVVKQYISSGARIIGGCCRTSPKDIQEISAAVKKYT | not soluble
GPGSMHVSSPQRAKSEASQPPNGSPPLSSSEPAAVHLYDLDTVFLSKTVISLTDVFTNSTDGPFDLSPLCAPQQQGVEEQQRLQQAAATTASSPSTGDAHCSPSSGATHAHMCSTSLPFSGGSTLRPKAVARGADGQWRTVSTDRGAPASSAFTTACNKPPSQEAHARMLLVPLDSYHFLLTYHDVDVAGQLRGRCDKQTAMATMERLSAASPGCRPPRSGICVVRRLEGEQRGATKASSAATAVLAGAASATRPTLSRIAHGLPLDAFDGWVRDYTVYGLSCNEAVLRAAWEDKARERAEGTLAMPAGAVVEVGESAAPGHESAGGGGSGEERRVTGGGNSRGDNVGGVHISVPPASGSSAEATVEGAAALAPQLSDAPSVLVPTDGAAVGEGKDAATFASPDAARAAMLSPSLDRLHCSSTTSSSSTATPTPSPPTERSEEGGKVGGTVSTTMSASPASTAAQQQQQQNDVLWEEERQRTQRAAAQLRHRFLVSDSAQHALWALEVHLPAMKVRAVSPAEFYALEVEESDEERCQQLPGTARMMATMVTMKHRRHAALQKHERILLMHLHRDWRFLAGRQRLQSRAAARPSQVTATLSRARPAPTHRGRARHRRQIR | soluble
MSLDVAIGEVLAEVAAQEGDRLALVEVVPNGMDSPVGAASTSRRWTYAQLNDDARRCASWLLTQFKTGDHICVWAPNVPEWIVLQYGAALSGLVLVTANPALKASELEFVLQQSQSVALFHLDAFRGVETGAVARSFASAKLRCISFSGWLAEIRRTEIGALPRIDPGQPAQIQYTSGTTGRPKGALLHHRGLITNASYVAARAGLDHSVLLSPMPLFHTAGSIMSVLGCLNSRSTLVLPLLFDPGTVLDAIAHTRADTLFGVPTMLLAVIDAQLQAPRDLSSLRVAASGGAQVPPELHRRIHDALKLPLLTVFGQTELSPIVSQTCIDDPDEQRIHSVGRPLWNVEVRIVDPNGDRVVVIGVEGEIQVRGYQTMLGYFNAPKETSETITADGWLRTGDLGAMDEAGYLRITGRLKDMIIRGGENIYPAEVEACLLRHPAVADISVFGAPDDKWGEVVAAAVRLVPDVPVTATELSAFCKTEIAPHKAPTVWYACTGFPLTASGKIQKFRLRDAAVEGELQRLSEGHHHHHH | soluble
MGSDKIHHHHHHMFIDKQTVERHFSKSAHLYDGVNHVQRKMAHRLVQLLDEKRRDAKDEPRAILDIGCGTGWLTRECLKSFPQATIDAVDLSKQMLEVAEKNVSSHPNVQFIQGDIEKMVREKPSAKTYDVIVANAVFQWLDKPTETVAQLRSWLKPNGLLLFSTFGPDTFYELHDSFQLAAKQLGIIDERRGLDYLSKTEWKRTLDGLFAELTIHEEKAIESYATVEQFLHTVKKMGATYSQSSRPLSKRYYQLMKEIYEQRYRTEDSIPATYDCLYVLCQA | not soluble
MGSDKIHHHHHHMSIELIDLHPAPADLKQLVQSGFKCQPRQLPAWVLYDAKGSRLFAQICEQPEYGLTRTEIKLLEENAPAIAKAVGDGVIVEFGIGNARKVSPLLNAIRPSTFVALDISQAALKDSLTRLASTYPMVSILGICCDHSSMQALPPHPRLEGVRCIGFFPGSSLGNFTPKEAVAVLRRFRKLLGGGPLLLGLDQPRDPIQLEAAYNDEAGISAAFARNLLHRLNRELEADFRPDQFSYRARWQEEFHRIEMALVSRCSQTIVIDNSTWSFSAGEPLITEYSVKYNPQEAARLAEKAGWRINQRWHDSADSLSLHLLEPSD | not soluble
MGSDKIHHHHHHVSSSLKDIQNKNQELDTKKQILSALNIRDVKDADAEYNKYVKGDMLMNVDGTLTENTDGFSISYEKEAKENNRLHVFVCEVDGETKYVVPVYGAGLWGAIWGYVALNADKDTVYGVYFSHASETPGLGAEIAGAAFQNEFSGKKVLKDGQVALAVEKNGKVTDPAYQVDGISGGTITSKGVDAMIKACLSQYDKFLTNN | not soluble
MNPFIVADAESCIGCRSCEVACVVAHHEGQFPDKPEYFTPRVKVFKGDQCATAVFCHHCEDAPCASTCPNGAIVELNNRVQVIQEKCIGCKTCMIACPFGMMTVVTETVQPASHRLADVYRRTEAQKCDLCLDQPDGPACIKTCPTQALTLVDQQYLLHQQQQKRQHMALNEHNGRLFSRAVVQAASASSNKSIRDATPVNLLQRPRAPRLEPKKIPLAERKTGFAEIYLPFTESQIHEQAERCLECGDKTICQWTCPLHNAIPKWISLAHQGRIHEAAELSHQTSSLPEVCGRVCPQDRLCEQSCTLNDHDGAVTIGQIERHITETALATGWRPDLSQVKPSGKRVAIIGAGPAGLGCADILVRNGITPVVFDRYPEIGGLLTFGIPAFKLEKSVMTRRREIFTEMGVEFCLNTEIGRDITMENLLHDFDALFLGVGTYRSMRSGLENEDAQGVYDALPFLIGNTQHLMGYTANGAHPYVSMQDQRVVVLGGGDTAMDCVRTSLRQGASRVVCAYRRDEKNMPGSKREVKNAREEGAEFMFNLQPMSIVVDESGQVTGIKMVRTEMGQADAQGRRQALPITGSEHLIPADAVIMAFGFSPHRMSWLAEHNVVLDKHGRVVAPTISGYPYQTSNPKIFAGGDIVRGADLIVTAIAEGRKAAESIAYYLNVL | not soluble
MASPRELTQNPLKKIFMPYSNGRPALHASQRGVCMTNCPTLIVMVGLPARGKTYISKKLTRYLNFIGVPTREFNVGQYRRDMVKTYKSFEFFLPDNEEGLKIRKQCALAALNDVRKFLSEEGGHVAVFDATNTTRERRAMIFNFGEQNGYKTFFVESICVDPEVIAANIVQVKLGSPDYVNRDSDEATEDFMRRIECYENSYESLDEEQDRDLSYIKIMDVGQSYVVNRVADHIQSRIVYYLMNIHVTPRSIYLCRAGESELNLKGRIGGDPGLSPRGREFSKHLAQFISDQNIKDLKVFTSQMKRTIQTAEALSVPYEQFKVLNEIDAGVCEEMTYEEIQDHYPLEFALRDQDKYRYRYPKGESYEDLVQRLEPVIMELERQENVLVICHQAVMRCLLAYFLDKAAEELPYLKCPLHTVLKLTPVAYGCKVESIFLNVAAVNTHRDRPQNVDISRPSEEALVTVPAHQ | soluble
MSLGVEGEMQSFMSDMGVQANVTGPSAYQGQSAGYYSMGSVWSRFPQKNIQPFNLQLPHARAGCGGIDLFAGSFSFINTAELVAMLKATANNALGFAFKLAIDTISPEIGKVMDELAQKVQQMNQMNISSCETAQALVGGLWPKSDTASSVICEAIANSQGAVSDWARARQQCNNGGQREALKSANSDPDMKEQAGMPNNYTWAALGKKYGGFDTQFREFLMTLVGTVIYDPAGNGGKPRVQFIGPADPALISAMLDGTSSTPHKYWSCGGDSAKCMAPSEIDMVIGPNAAIKARVRTLIESMALKVRDPGASLTPAEIQLLGMASVPVYKIITVSAAAEFGISAQEINDLSEIVAVDLVTTMTMRFIDMAVNARSDFNGADADSLREWREGLYETRRNFLGIAARTSQRFDQTFALIQRTQMLEKTLRTQLSPQMSAALRFSRTLGSQVQEGHHHHHH | not soluble
MGSDKIHHHHHHMQDVTGRALVMMESATQGQQGIAMDLVQEAFIALHKSYADRSTEEWYPLFYTILNNKLQDWRRKEARRANPFSFFKKVSLDNDDEEIIDIVDEKAINPADFLDQAVTIEEIQEAIAKLPVRQQQAFMLRAWEGFDTHTTAQIMNCTEGSVKTHYHRAIQGLREYLAHLNPMGGSNES | not soluble
